We go through 6 molecules from patent publication US20210269545A1 (published 2021).

Broadly, the Kd is a measure of binding affinity in units of concentration. The low end stands for a tighter complex, the high end for a looser complex.

The target in experiment [1] is T1, CD38 (human, UniProt P28907 43-300, limits assumed).
T1 construct: Soluble antigen of the bio-layer interferometry experiments; also called Cluster of Differentiation 38; CD38 antigen (Octet)
The experiment in a line: BLI (Octet Red), antibody on anti-hIgG Fc (AHC) sensor, 1:1 model. (Biolayer interferometry detects binding as a change in optical thickness at a sensor tip.)

The target in experiment [2] is T1, CD38. The experiment in a line: BLI (Octet Red), antibody on anti-hIgG Fc (AHC) sensor.
Protocol: Binding experiments were performed on Octet Red at 25° C. The antibodies were loaded onto anti-hIgG Fc Capture (AHC) biosensors for 300 seconds. The ligand-loaded sensors were dipped into a two-fold series dilution (starting at 300 nM) of the antigens (CD19 and CD38) for 240 seconds of CD19 and 150 seconds of CD38 for association followed by dissociation for 600 seconds of CD19 and 130 seconds of CD38. Kinetic constants were calculated using a monovalent (1:1) binding model.

Residue numbers refer to the chain shown, from its start.

B1: BS1M-4 (bispecific antibody)
heavy 1: QVQLVQSGAEVKKPGSSVKVSCKASGGTFSSYAFSWVRQAPGQGLEWMGRVIPHLGTANSAQKFQGRVTITADKSTSTAYMELSSLRSEDTAVYYCARDDIAALGPFDYWGQGTLVTVSS
heavy 2: not shown
light: not shown
notes: Variant of BS1 in the CDR-H2 of the anti-CD38 arm; not shown: heavy chain constant region of the BS1 format
In the experiment with CD38 [1], B1 displayed a Kd of 94.4 nM.

B2: BS1M-8 (bispecific antibody)
heavy 1: B1 heavy 1 with L55Q
heavy 2: not shown
light: not shown
notes: Variant of BS1; not shown: heavy chain constant region of the BS1 format
As to B2, the binding result with CD38 [2] is listed as “no binding”.

B3: BS1M-9 (bispecific antibody)
heavy 1: B1 heavy 1 with H54Q, L55Q
heavy 2: not shown
light: not shown
notes: as for B2
On to B3, for which the binding result with CD38 [2] was “no binding”.

B4: BS1M-2 (bispecific antibody)
heavy 1: B1 heavy 1 with I52T, H54F
heavy 2: not shown
light: not shown
notes: as for B2
For the molecule B4, in the experiment with CD38 [2], the binding result was “no binding”.

B5: BS1M-5 (bispecific antibody)
heavy 1: B1 heavy 1 with I52T
heavy 2: not shown
light: not shown
notes: as for B2
Consider B5, for which, in the experiment with CD38 [2], the binding result was “no binding”.

B6: BS1M-7 (bispecific antibody)
heavy 1: B1 heavy 1 with H54Q
heavy 2: not shown
light: not shown
notes: as for B1
In the case of B6, in the experiment with CD38 [1], the Kd came out at 60.5 nM.
